From doi:10.1101/2024.11.26.625467

Molecular target: CO17 B NA (neuraminidase head of B/Colorado/06/2017, B/Victoria-lineage) (influenza B virus B/Colorado/06/2017)
Assay: cryo-EM structure

CO17 B NA (neuraminidase head of B/Colorado/06/2017, B/Victoria-lineage) (domain or fragment)
stoichiometry N: 4
